PMC7528018, “Structure of the TFIIIC subcomplex τA provides insights into RNA polymerase III pre-initiation complex formation” (Nature Communications, 2020)
Each block holds one binder with its values, some of them ahead of it.

What was measured:
[1] = target: τA Δtail (τ95Δtail) (Saccharomyces cerevisiae, UniProt P33339;P32367;Q12415 1-1025;1-592;1-435); assay: EMSA; 1-10 uM protein, 1 uM DNA; much stronger than wt and stronger than Δplug; τA EMSA: 100 mM NaCl, 20 mM HEPES pH 7.5, 5 mM DTT, 1 h on ice, 10% glycerol added before loading; TFIIIC EMSA: 1 h on ice, buffer not restated; 3-8% Tris-acetate gel in 2.5 mM Tris base, 19 mM glycine, 1 mM DTT; conditions: protein: recombinant; tags: N-terminal TEV-cleavable His tag on τ95; copies: 1;1;1; label: 6FAM at 3' end of non-template strand
τA Δtail (τ95Δtail), sequence (P33339 whole entry, stated change not applied, chain 1 of 3): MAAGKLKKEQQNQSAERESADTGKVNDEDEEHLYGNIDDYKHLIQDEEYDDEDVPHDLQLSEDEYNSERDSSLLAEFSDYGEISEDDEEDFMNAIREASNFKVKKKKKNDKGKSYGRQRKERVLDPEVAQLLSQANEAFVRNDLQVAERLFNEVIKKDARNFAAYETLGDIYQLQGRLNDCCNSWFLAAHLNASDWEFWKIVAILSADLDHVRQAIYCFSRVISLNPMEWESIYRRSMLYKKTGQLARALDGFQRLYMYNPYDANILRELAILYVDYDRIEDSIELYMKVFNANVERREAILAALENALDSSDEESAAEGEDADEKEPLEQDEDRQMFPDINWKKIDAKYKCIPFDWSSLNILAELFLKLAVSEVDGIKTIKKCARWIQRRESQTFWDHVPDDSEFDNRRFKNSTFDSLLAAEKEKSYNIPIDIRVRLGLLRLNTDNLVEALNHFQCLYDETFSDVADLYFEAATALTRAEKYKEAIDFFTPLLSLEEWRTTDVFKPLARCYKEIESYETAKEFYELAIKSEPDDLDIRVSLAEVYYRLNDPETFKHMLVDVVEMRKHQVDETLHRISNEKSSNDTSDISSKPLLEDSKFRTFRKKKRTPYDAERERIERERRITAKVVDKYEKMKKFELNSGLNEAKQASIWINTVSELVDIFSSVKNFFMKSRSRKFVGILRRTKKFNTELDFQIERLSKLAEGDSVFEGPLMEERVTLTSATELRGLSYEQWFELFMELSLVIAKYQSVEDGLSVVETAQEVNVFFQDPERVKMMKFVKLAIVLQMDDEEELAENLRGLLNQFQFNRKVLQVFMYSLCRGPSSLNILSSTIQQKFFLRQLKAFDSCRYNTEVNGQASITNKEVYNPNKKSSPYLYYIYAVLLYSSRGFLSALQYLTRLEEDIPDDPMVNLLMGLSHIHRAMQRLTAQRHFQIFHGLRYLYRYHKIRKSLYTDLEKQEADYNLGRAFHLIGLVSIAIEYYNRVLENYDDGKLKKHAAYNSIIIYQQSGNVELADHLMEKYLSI
τA Δtail (τ95Δtail), sequence (P32367 1-592, stated change not applied, chain 2 of 3): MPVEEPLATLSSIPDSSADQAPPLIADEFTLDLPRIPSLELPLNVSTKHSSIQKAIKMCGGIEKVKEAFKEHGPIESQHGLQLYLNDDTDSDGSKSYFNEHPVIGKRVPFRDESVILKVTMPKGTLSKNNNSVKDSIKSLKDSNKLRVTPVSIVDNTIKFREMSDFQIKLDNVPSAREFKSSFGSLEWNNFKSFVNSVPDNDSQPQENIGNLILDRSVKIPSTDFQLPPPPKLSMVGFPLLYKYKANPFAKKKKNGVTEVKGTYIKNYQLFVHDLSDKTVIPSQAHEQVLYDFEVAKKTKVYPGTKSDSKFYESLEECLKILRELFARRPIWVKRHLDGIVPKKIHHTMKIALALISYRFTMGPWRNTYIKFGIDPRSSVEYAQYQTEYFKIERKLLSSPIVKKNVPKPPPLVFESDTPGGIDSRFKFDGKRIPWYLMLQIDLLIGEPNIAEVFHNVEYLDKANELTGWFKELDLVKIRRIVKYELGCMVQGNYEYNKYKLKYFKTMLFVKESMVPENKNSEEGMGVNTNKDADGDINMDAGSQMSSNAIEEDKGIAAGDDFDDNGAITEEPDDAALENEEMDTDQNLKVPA
τA Δtail (τ95Δtail), sequence (Q12415 whole entry, stated change not applied, chain 3 of 3): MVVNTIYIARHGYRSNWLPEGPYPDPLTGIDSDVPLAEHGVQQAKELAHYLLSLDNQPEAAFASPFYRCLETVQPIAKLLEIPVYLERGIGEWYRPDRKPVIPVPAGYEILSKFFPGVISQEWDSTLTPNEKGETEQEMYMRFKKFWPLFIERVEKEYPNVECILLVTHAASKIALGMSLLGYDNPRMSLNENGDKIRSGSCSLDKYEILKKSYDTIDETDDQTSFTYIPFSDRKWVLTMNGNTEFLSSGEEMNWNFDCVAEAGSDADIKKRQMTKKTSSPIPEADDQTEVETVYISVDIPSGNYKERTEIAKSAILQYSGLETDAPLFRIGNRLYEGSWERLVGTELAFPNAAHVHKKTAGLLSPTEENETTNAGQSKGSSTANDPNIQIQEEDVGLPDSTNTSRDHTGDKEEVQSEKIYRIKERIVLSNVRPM

[2] = target: τA Δplug (τ95Δplug) (Saccharomyces cerevisiae, UniProt P33339;P32367;Q12415 1-1025;1-521;1-435); assay: EMSA; 1-10 uM protein, 1 uM DNA; much stronger than wt, weaker than Δtail; τA EMSA: 100 mM NaCl, 20 mM HEPES pH 7.5, 5 mM DTT, 1 h on ice, 10% glycerol added before loading; TFIIIC EMSA: 1 h on ice, buffer not restated; 3-8% Tris-acetate gel in 2.5 mM Tris base, 19 mM glycine, 1 mM DTT; conditions: protein: recombinant; tags: N-terminal TEV-cleavable His tag on τ95; copies: 1;1;1; label: 6FAM at 3' end of non-template strand
τA Δplug (τ95Δplug), sequence (P33339 whole entry, stated change not applied, chain 1 of 3): as the sequence (P33339 whole entry, stated change not applied, chain 1 of 3) above
τA Δplug (τ95Δplug), sequence (P32367 1-521, stated change not applied, chain 2 of 3): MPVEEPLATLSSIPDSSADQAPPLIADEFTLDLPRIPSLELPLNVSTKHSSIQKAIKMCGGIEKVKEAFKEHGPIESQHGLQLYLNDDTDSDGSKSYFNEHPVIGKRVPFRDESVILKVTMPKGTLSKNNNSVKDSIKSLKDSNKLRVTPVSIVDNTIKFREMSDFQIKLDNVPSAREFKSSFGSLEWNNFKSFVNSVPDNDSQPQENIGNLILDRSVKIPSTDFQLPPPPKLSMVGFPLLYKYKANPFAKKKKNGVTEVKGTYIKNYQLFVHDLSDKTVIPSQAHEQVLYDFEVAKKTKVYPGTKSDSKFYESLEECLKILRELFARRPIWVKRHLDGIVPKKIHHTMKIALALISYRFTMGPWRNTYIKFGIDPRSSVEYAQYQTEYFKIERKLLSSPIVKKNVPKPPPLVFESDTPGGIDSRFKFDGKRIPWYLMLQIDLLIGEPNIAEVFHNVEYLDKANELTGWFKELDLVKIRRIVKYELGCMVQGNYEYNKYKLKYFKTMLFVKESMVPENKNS
τA Δplug (τ95Δplug), sequence (Q12415 whole entry, stated change not applied, chain 3 of 3): as the sequence (Q12415 whole entry, stated change not applied, chain 3 of 3) above

[3] = target: T1, TFIIIC subcomplex τA (τ131, τ95, τ55) (S. cerevisiae, UniProt P33339 1-1025; P32367 1-649; Q12415 1-435); assay: co-sedimentation; 10–30% glycerol gradient without crosslinker, equimolar τA and Brf1–TBPΔN, 75 mM NaCl at mixing, 100 mM NaCl, 20 mM HEPES pH 7.5, 5 mM DTT in the gradient, 16 h at 150,000 x g; fractions on SDS–PAGE, silver stain; apparent stoichiometry; conditions: both partners purified
T1 construct: τ131, subunit of S. cerevisiae TFIIIC subcomplex τA; insect cell codon-optimized gene; τ95, subunit of S. cerevisiae TFIIIC subcomplex τA; τ55, subunit of S. cerevisiae TFIIIC subcomplex τA; No TEV cleavage of the his-tag is described in the purification; also called wt τA; full-length τA; source: Hi5 insect cells, subunits co-expressed by baculovirus, purified (Ni-NTA, heparin, MonoQ, Superose …)
T1 sequence (P33339 whole entry, chain 1 of 3): as the sequence (P33339 whole entry, stated change not applied, chain 1 of 3) above
T1 sequence (P32367 whole entry, chain 2 of 3): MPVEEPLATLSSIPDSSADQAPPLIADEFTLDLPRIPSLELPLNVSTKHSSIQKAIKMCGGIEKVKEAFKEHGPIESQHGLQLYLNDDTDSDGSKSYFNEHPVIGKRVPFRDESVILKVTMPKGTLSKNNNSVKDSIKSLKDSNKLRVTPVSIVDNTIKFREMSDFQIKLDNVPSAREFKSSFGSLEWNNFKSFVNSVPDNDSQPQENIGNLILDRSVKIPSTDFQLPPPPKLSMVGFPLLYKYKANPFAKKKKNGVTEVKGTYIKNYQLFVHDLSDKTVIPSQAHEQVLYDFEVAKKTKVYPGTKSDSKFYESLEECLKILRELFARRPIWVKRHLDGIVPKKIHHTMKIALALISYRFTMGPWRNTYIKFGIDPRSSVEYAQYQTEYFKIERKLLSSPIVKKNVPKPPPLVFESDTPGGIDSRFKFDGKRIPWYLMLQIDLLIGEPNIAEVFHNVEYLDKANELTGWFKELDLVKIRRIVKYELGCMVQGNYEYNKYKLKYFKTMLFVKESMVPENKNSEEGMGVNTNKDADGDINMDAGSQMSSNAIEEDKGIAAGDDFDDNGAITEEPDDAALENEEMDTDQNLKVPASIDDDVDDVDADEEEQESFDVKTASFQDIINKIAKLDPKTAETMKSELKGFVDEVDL
T1 sequence (Q12415 whole entry, chain 3 of 3): as the sequence (Q12415 whole entry, stated change not applied, chain 3 of 3) above

[4] = target: holo-TFIIIC Δtail (τ95Δtail) (Saccharomyces cerevisiae, UniProt P33339;P32367;Q12415;P34111;Q06339;Q12308 1-1025;1-592;1-435;1-1160;1-672;1-588); assay: EMSA; 0.5 uM DNA; tail deletion has only a mild effect; τA EMSA: 100 mM NaCl, 20 mM HEPES pH 7.5, 5 mM DTT, 1 h on ice, 10% glycerol added before loading; TFIIIC EMSA: 1 h on ice, buffer not restated; 3-8% Tris-acetate gel in 2.5 mM Tris base, 19 mM glycine, 1 mM DTT; conditions: protein: recombinant; tags: N-terminal TEV-cleavable His tag on τ95; C-terminal TEV-cleavable TwinStrep on τ138; copies: 1;1;1;1;1;1; label: 6FAM at 3' end of non-template strand

B1: His_Abox (dsDNA)
DNA 1: CATCTTAGTATAGTGGTTAGT
DNA 2: ACTAACCACTATACTAAGATG
binding result [1]: binds
binding result [2]: binds

stoichiometry N [3]: 1
B2: Brf1–TBP construct lacking the first 70 amino acids (Zn-ribbon and linker) (other)
chain: SALESREATLNNARRKLRAVSYALHIPEYITDAAFQWYKLALANNFVQGRRSQNVIASCLYVACRKEKTHHMLIDFSSRLQVSVYSIGATFLKMVKKLHITELPLADPSLFIQHFAEKLDLADKKIKVVKDAVKLAQRMSKDWMFEGRRPAGIAGACILLACRMNNLRRTHTEIVAVSHVAEETLQQRLNEFKNTKAAKLSVQKFRENDVEDGEARPPSFVKNRKKERKIKDSLDKEEMFQTSEEALNKNPILTQVLGEQELSSKEVLFYLKQFSERRARVVERIKATNGIDGENIYHEGSENETRKRKLSESGIVPTLQNIVATVTLGCRLDLKTVALHARNAEYNPKRFAAVIMRIREPKTTALIFASGKMVVTGAKSEDDSKLASRKYARIIQKIGFAAKFTDFKIQNIVGSCDVKFPIRLEGLAFSHGTFSSYEPELFPGLIYRMVKPKIVLLIFVSGKIVLTGAKQREEIYQAFEAIYPVLSEFRKMPRNLHLLPTTDTYLSKVSDDPDNLEDVDDEELNAHLLNEEASKLKERIWIGLNADFLLEQESKRLKQEADIATGNTSVKKKRTRRRNNTRSDEPTKTVDAAAAIGLMSDLQDKSGLHAALKAAEESGDFTTADSVKNMLQKASFSKKINYDAIDGLFR

B3: His_Abox_Bbox (dsDNA)
DNA 1: CATCTTAGTATAGTGGTTAGTACACATCGTTGTGGCCGATGAAACCCTGGTTCGATTCTAGG
DNA 2: CCTAGAATCGAACCAGGGTTTCATCGGCCACAACGATGTGTACTAACCACTATACTAAGATG
binding result [4]: binds
